{"source": "paper PMC9244803", "about": "“Development and Optimization of Bifunctional Fusion Proteins to Locally Modulate Complement Activation in Diseased Tissue” (Frontiers in Immunology, 2022)", "binders": {"B1": {"name": "humanized Fab(3d8b) (Fab, V domains shown)", "VH": "QVQLVQSGAEVKKPGASVKVSCKASGYTFTNYYINWVRQAPGQGLEWMGVINPYSGGTSYNQKFKGRVTMTVDTSTSTAYMELSSLRSEDTAVYFCSSPYWGQGTLVTVSS", "VL": "DVVMTQSPLSLPVTLGQPASISCKSSQSLLDSDGKTYLNWFQQRPGQSPRRLIYLVSKLDSGVPDRFSGSGSGTDFTLKISRVEAEDVGVYYCWQGTHFPRTFGGGTKVEIK", "notes": "heavy chain (H) of PDB 7UE9; light chain (L) of PDB 7UE9; CDRs of mouse clone 3d8b grafted onto a human framework; solved with an IgG4-derived Fab (PDB 5DK3) as search model; also called 3d8b Fab"}, "B2": {"name": "humanized C3d mAb-CR1_(1-10) (antibody, V domains shown)", "VH": "B1 VH", "VL": "B1 VL", "notes": "humanised heavy variable region with the CDRs of 3d8b; as the variable region of the heavy chain of m3 (PDB 7UE9 chain H); human IgG4 heavy constant region, hinge stabilized and Fc-mutated; (Gly4Ser)2 linker; human complement receptor type 1 (CR1), the first 10 consensus repeats; humanised light chain with the CDRs of 3d8b; as the light chain of m3 (PDB 7UE9 chain L); also called lead fusion …"}, "B3": {"name": "humanized C3d mAb (CDRs of 3d8b grafted onto human IgG4 S228P, L235E) (antibody, V domains shown)", "VH": "B1 VH", "VL": "B1 VL", "notes": "humanised heavy variable region with the CDRs of 3d8b; as the variable region of the heavy chain of m3 (PDB 7UE9 chain H); human IgG4 heavy constant region, hinge stabilized and Fc-mutated; humanised light chain with the CDRs of 3d8b; as the light chain of m3 (PDB 7UE9 chain L); IgG4; source: CHO cells, transient, purified (Protein A or IMAC, SEC)"}}, "key": {"[1]": {"molecular_target": "T1, Human C3d crystallised with Fab(3d8b) (human, UniProt P01024)", "T1 construct": "human C3d as in PDB 7UE9 chain C", "T1 sequence (P01024 1002-1303)": "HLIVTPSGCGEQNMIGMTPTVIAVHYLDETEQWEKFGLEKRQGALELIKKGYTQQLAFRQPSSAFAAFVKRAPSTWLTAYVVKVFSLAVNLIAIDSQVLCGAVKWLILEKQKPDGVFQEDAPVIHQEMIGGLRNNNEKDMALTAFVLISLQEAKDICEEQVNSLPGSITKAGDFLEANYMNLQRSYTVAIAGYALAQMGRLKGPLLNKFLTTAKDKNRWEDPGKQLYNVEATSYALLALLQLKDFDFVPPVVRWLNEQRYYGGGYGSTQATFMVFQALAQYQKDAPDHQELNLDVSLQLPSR", "assay": "crystal structure; Fab(3d8b):C3d complex, sitting-drop vapor diffusion at 20°C, PEG, pH 7.0 to 8.5; 1.75 Å; PDB 7UE9", "conditions": "both partners purified"}, "[2]": {"molecular_target": "T2, C3d deposited in the kidneys of CfH^-/- mice (mouse (endogenous in CfH^-/- mouse …, UniProt P01027))", "T2 construct": "C3d-containing fragments of mouse complement C3 deposited in renal glomeruli; source: endogenous, kidney glomeruli of CfH^-/- mice", "T2 sequence (P01027 1002-1303)": "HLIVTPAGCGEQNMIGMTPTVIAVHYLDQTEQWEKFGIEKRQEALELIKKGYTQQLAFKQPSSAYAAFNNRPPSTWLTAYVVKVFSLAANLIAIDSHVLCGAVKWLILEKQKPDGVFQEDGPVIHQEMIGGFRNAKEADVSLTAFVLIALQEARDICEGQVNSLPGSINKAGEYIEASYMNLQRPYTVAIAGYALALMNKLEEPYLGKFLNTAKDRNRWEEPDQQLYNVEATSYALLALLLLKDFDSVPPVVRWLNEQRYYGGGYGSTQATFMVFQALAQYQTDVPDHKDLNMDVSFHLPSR", "assay": "immunostaining of cells or tissue; proteins injected into CfH^-/- mice; frozen kidney sections taken 7 or 14 days post-dose and stained with anti-Crry or anti-human IgG4", "conditions": "one partner purified"}}}
{"binder": "B1", "values": [{"measurement": "binding result", "setting": "[1]", "result": "binds"}]}
{"binder": "B2", "values": [{"measurement": "binding result", "setting": "[2]", "result": "binds"}]}
{"binder": "B3", "values": [{"measurement": "binding result", "setting": "[2]", "result": "binds"}]}
